Assay in all cases: split reporter
Assay [1] deals with Yn-fused MDM2, wild type (FLAG-tagged MDM2-Yn) (UniProt Q00987).
Assay [2] deals with M2-dIAZ-Yn (Yn-fused MDM2 deleted of the I1 and AZ domains) (UniProt Q00987).
The target in assay [3] is M2-dAZ-Yn (Yn-fused MDM2 deleted of the AZ domain) (UniProt Q00987).

Yc-fused NS, wild type (Myc-tagged NS-Yc), sequence (Q9BVP2 whole entry, the tested form may be a part): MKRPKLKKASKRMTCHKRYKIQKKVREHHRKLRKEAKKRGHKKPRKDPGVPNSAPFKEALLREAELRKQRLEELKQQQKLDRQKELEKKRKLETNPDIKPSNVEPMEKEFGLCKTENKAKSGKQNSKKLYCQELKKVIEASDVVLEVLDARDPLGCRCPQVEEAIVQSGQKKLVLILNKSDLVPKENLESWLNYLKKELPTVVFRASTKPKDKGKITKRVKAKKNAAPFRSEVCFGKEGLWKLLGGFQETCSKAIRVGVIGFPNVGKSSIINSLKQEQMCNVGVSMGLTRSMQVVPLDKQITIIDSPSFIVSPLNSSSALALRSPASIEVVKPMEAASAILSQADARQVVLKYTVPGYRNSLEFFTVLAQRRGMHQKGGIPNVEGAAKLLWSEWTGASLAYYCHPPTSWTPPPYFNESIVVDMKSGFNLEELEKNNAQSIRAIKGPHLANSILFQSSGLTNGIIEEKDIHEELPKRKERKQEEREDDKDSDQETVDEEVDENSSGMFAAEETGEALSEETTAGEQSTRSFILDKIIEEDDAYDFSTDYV
NS-GI-Yc (Yc-fused NS deleted of the BC and A domains), sequence (Q9BVP2 116-464, stated change not applied): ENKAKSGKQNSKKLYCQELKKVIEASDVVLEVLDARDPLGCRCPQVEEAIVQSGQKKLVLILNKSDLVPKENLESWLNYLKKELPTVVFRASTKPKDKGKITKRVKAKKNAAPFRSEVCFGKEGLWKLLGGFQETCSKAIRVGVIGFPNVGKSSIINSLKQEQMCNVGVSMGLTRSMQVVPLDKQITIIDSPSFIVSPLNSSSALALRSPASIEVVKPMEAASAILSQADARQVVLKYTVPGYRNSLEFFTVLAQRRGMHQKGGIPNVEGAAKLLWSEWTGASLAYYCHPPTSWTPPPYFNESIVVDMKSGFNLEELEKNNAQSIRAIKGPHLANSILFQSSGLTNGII

As for “NS-GI-Yc (Yc-fused NS deleted of the BC and A domains) (from UniProt Q9BVP2 116-464) (domain or fragment)”, in assay [1], the BiFC efficiency (percent YFP+ cells in the CFP+ population) is 27.2%.
As for “Yc-fused NS, wild type (Myc-tagged NS-Yc) (from UniProt Q9BVP2 1-549) (natural protein)”, the BiFC efficiency (percent YFP+ cells in the CFP+ population) was found to be 48.7% in assay [1], 9.4% in assay [2] and 15% in assay [3].
